Measurements as given in patent US20220348667A1 (LUXEMBOURG INSTITUTE OF HEALTH LIH, published 2022).

Columns and labels:
[1] = molecular target: murine ACKR2 stably overexpressed on HEK293T cells (HEK.mACKR2) (mouse) (UniProt O08707); experiment: flow cytometry binding competition on HEK.mACKR2 cells, CCL5-AF647 (30 nM) as competitor
[2] = molecular target: T1, human ACKR2 stably expressed on HEK293T cells (HEK.ACKR2) (human, UniProt O00590 1-384); experiment: flow cytometry, displacement of CXCL10-Cy5 from HEK.ACKR2 cells by unlabelled chemokine (50 nM)
T1 construct: whole, on cells; also called hACKR2; HEK.hACKR2
T1 sequence (looked up): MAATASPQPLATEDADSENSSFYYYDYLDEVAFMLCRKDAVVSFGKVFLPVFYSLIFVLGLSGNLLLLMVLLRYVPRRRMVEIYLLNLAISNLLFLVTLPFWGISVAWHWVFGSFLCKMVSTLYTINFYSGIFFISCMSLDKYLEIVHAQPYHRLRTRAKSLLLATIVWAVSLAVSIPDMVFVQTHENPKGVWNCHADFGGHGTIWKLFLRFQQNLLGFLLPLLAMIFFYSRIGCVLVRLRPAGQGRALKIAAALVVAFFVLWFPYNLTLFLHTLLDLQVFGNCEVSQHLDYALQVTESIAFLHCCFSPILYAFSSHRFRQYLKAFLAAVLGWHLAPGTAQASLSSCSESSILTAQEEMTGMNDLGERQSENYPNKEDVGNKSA
Description: HEK293T and HEK-ACKR2 cells were incubated with CXCL10-Cy5 at indicated concentrations for 45 minutes at 37° C., then washed twice with FACS buffer (PBS, 1% BSA, 0.1% NaN₃). Dead cells were excluded using Zombie Green viability dye (BioLegend). ACKR2-negative HEK293T cells were used to evaluate non-specific binding of CXCL10-Cy5. For binding competition with unlabelled chemokines (50 nM), the signal obtained for CXCL10-Cy5 in the absence of unlabelled chemokines was used to define 100% binding. Ligand binding was quantified by mean fluorescence intensity on a BD FACS Fortessa cytometer (BD Biosciences).

Chain of murine ACKR2 stably overexpressed on HEK293T cells (HEK.mACKR2) (mouse) (O08707 whole entry): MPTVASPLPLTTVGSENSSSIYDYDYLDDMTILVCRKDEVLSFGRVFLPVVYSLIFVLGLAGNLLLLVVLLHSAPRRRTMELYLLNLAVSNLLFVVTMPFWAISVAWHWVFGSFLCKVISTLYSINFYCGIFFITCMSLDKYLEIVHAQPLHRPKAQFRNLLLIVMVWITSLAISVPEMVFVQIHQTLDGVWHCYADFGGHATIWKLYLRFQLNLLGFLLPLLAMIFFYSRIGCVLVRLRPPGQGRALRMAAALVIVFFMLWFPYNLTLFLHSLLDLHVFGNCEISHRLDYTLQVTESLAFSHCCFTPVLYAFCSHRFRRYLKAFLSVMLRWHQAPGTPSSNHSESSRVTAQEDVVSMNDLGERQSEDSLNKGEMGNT

**Q.** “polyclonal Goat anti-mACKR2 (ab1656, Abcam) (antibody)” was tested. Which % displacement of CCL5-AF647 at 50 µg/ml antibody [1] did it give?
**A.** > 80%

B1: CCL5 (unlabelled, PeproTech) (ligand, human, UniProt P13501 24-91, looked up)
chain: SPYSSDTTPCCFAYIARPLPRAHIKEYFYTSGKCSNPAVVFVTRKNRQVCANPEKKWVREYINSLEMS
**Q.** Does B1 bind [2]?
**A.** binds
